In the supplement of paper PMC10201428:
± gives the standard deviation of the averaged measurements.

B1: library; a variant is named by its letters at N, in order (parent)
chain: AATGTTGTTGATGCAACCATAAAGTGATATTTAATAATTATTTATAATCAGCAACTTAACCACAAAACAACCATATATTGATATNTCACAAAACAACCATAANTTGATATTTTTGTGAATCGAGTATTTCAGCAAAACTACTGCAGTAAGAA

Assays:
[1] = variants of: B1; assay: relative integration efficiency (T-LR orientation) vs wild-type transposon end (log2 (normalized fold change)); transposon end mutated: left end; higher = more efficient transposition; conditions: with VchCAST RNA-guided transposition machinery (E. coli BL21(DE3) host, lacZ target)
How it was run: (§1)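 Each barcoded pool, 1549 left-end or 1849 right-end transposon variants in a pUC57 mini-transposon donor, went into E. coli BL21(DE3) with a T7-driven effector plasmid (CRISPR array, tniQ-cas8-cas7-cas6, tnsA-tnsB-tnsC). Plates contained 0.1 mM IPTG and were held at 37°C for 18 h. Input plasmids and genomic integration junctions were PCR-amplified and read by Illumina sequencing, with two biological output replicates and four reference barcodes. Relative integration efficiency is the fold change of output over input barcode abundance, normalised to the reference barcodes and log-transformed.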

[2] = variants of: B1; assay: relative integration efficiency (T-RL orientation) vs wild-type transposon end (log2 (normalized fold change)); transposon end mutated: left end; higher = more efficient transposition; conditions: with VchCAST RNA-guided transposition machinery (E. coli BL21(DE3) host, lacZ target)
How it was run: as §1

Variant	relative integration efficiency (log2) [1]	relative integration efficiency (log2) [2]
CG A36T A37T T38A T39A	0.111 ± 0.38	0.0771 ± 0.077
CG A53C A54C C55A T56G	-0.0934 ± 0.06	-0.592 ± 0.35
CG A27T A81T A107T	-2.46 ± 1.4	-3.03 ± 1.3
CG A34C T35C A36G T38C A40G T42C A44G T45C A46C A62G A65G A66C	-1.11 ± 0.2	-1.33 ± 0.56
CG A23T G24C T25A G26C	-2.69 ± 1.5	-2.6 ± 0.78
CG A36T	0.0771 ± 0.068	0.0168 ± 0.042
CG A36C	-0.699 ± 0.7	-0.216 ± 0.15
CG A36G	-0.222 ± 0.59	-0.259 ± 0.23
CG A27C A81C A107C	-1.49 ± 1.6	-1.32 ± 0.78
CG A34T T35A	0.192 ± 0.25	0.209 ± 0.033
CG A29T T30A	0.489 ± 0.49	0.23 ± 0.29
CG A40C	-0.351 ± 0.61	-0.0674 ± 0.033
CG A40G	0.0123 ± 0.78	-0.273 ± 0.0094
CG A40T	0.577 ± 0.12	0.279 ± 0.021
CG A36T A37T	0.375 ± 0.21	0.0996 ± 0.091
CG A29T	-0.0387 ± 0.14	0.26 ± 0.13
CG A29G	-0.232 ± 0.74	-0.238 ± 0.44
CG A29C	-0.501 ± 0.28	-0.333 ± 0.36
CG A27T T28A	-0.61 ± 0.9	-0.441 ± 0.66
CG A47C	-0.251 ± 0.89	-0.0577 ± 0.11
CG A47G	-0.05 ± 0.31	-0.131 ± 0.15
CG A47T	0.0475 ± 0.098	0.0568 ± 0.074
CG A27T	-1.01 ± 1.3	-0.545 ± 0.55
CG A27G	-0.486 ± 0.47	-0.621 ± 0.35

Variant	relative integration efficiency (log2) [1]	relative integration efficiency (log2) [2]
CG A27C	-0.151 ± 0.13	-0.383 ± 0.25
CG A34G	-0.187 ± 0.0028	-0.0204 ± 0.046
CG A34T	0.848 ± 0.42	0.709 ± 0.11
CG A34C	0.459 ± 0.34	0.215 ± 0.064
CG A47C T48G C49A A50C	-1.93 ± 0.6	-1.5 ± 0.48
CG A36C A37C T38G T39G	-0.25 ± 0.0025	-0.22 ± 0.14
CG A53G	0.388 ± 0.41	-0.054 ± 0.011
CG A53T	0.318 ± 0.24	0.0743 ± 0.088
CG A53C	-0.195 ± 0.56	-0.278 ± 0.078
CG A50T G51C C52G A53T	-0.839 ± 1.2	-0.552 ± 0.39
CG A23T	0.0168 ± 0.12	0.086 ± 0.23
CG A53T A54T	-0.0995 ± 0.047	-0.0854 ± 0.17
CG A50C	-0.533 ± 0.31	-0.119 ± 0.099
CG A50T	-0.977 ± 0.48	-0.161 ± 0.19
CG A50G	-0.586 ± 0.44	-0.168 ± 0.005
CG A36G T42C A62G A65G A66C	-0.297 ± 0.32	-0.575 ± 0.29
CG A46G A47G C49G A50T G51C C52T A53C A54G A58C C60G	-3.701 ± 0.037	-3.69 ± 1.2
CG A29T T30A T31A T32A	-0.245 ± 0.11	-0.49 ± 0.46
TG A23G G24T A33T T76A A77G C87T	0.312 ± 0.44	-0.26 ± 0.39
CG A33T A34T	0.663 ± 0.25	0.125 ± 0.061
CG A44C T45G	0.0152 ± 0.65	-0.0735 ± 0.14
CG A54C C55A	0.298 ± 0.28	-0.0734 ± 0.078
CG A34C T35G A36C A37C	0.532 ± 0.072	0.175 ± 0.24
CG A40G T42G T43A A44G T45C A46G A47G T48A C49T G51A	-1.07 ± 0.8	-1.29 ± 0.32

Variant	relative integration efficiency (log2) [1]	relative integration efficiency (log2) [2]
CG A34T T35A A36T A37T	0.329 ± 0.44	0.189 ± 0.094
CG A44T T45A	0.734 ± 0.13	0.214 ± 0.11
TG A23G G24T A33T A70C T76A T86G	-0.0695 ± 0.1	-0.149 ± 0.11
CG A23G G24T A33T	0.0764 ± 0.17	-0.108 ± 0.099
CG A37C T38G T39G A40C	0.21 ± 0.43	-0.0337 ± 0.1
CG A47G T48G C52T A53G C55G T56C T57G A58C C60A A62G A66T A67T	-3.24 ± 2.1	-2.77 ± 0.78
CG A44T T45A A46T A47T	0.462 ± 0.079	-0.0681 ± 0.078
CG A27C T28G A29C T30G	-2.34 ± 1.1	-2.43 ± 0.93
CG A33C A34C	-0.259 ± 0.42	0.167 ± 0.0038
CG A53T A54T C55G T56A	-0.3673 ± 0.0015	-0.413 ± 0.41
CG A34C T35C A36G T38C A40G T42C A44G T45C A46C A53C A62G A65G A66C	-1.83 ± 0.73	-1.68 ± 0.71
CG A54C C55A T56G T57G	-2.12 ± 1.2	-1.68 ± 0.8
CG A46T A47T T48A C49G	0.192 ± 0.37	0.00752 ± 0.28
CG A46C A47C	-0.43 ± 0.42	-0.349 ± 0.19
CG A47C T48G	-0.613 ± 0.46	-0.656 ± 0.35
CG A34C T35C A36G T38C A40G T42C A44G A62G A65G A66C	-0.6091 ± 0.0048	-0.635 ± 0.3
CG A53C A54C	0.297 ± 0.47	0.0858 ± 0.13
CG A27C T28G	-0.919 ± 0.29	-1.27 ± 0.47
CG A37C	0.0561 ± 0.13	-0.222 ± 0.0095
CG A37T	0.0565 ± 0.29	-0.0666 ± 0.052
CG A37G	0.434 ± 0.033	0.146 ± 0.027
CG A37T T38A T39A A40T	0.186 ± 0.28	0.137 ± 0.049
CG A44G A46G T48G A50G C52A A53T C55A T56C T57A	-3.63 ± 2.8	-4.04 ± 1.1
CG A34C A36G T38C A40G T42C A62G A65G A66C	-0.589 ± 0.68	-0.685 ± 0.25

Variant	relative integration efficiency (log2) [1]	relative integration efficiency (log2) [2]
CG A54C	-0.339 ± 0.014	-0.178 ± 0.022
CG A47T T48A C49G A50T	-1.26 ± 1.6	-0.735 ± 0.52
CG A29C A83C A109C	-1.94 ± 0.43	-1.65 ± 0.57
CG A37T T38A	0.156 ± 0.25	0.191 ± 0.1
TG A23G G24T A33T T76A T78A T84A C87A	0.325 ± 0.22	0.0428 ± 0.34
CG A40C T41G T42G T43G	-0.1 ± 0.062	0.139 ± 0.11
CG A34T A36G A37T T38G T39A A40G T41C T42G T43G T48C C49A	-2.77 ± 0.75	-2.86 ± 0.81
TG A23G G24T A33T T76A T78G C87A	0.632 ± 0.11	0.16 ± 0.09
CG A36C A37C	0.196 ± 0.61	0.127 ± 0.018
CG A46T A47T T48G C49T A50G G51A C52G A53C A54G C55G T56A C61A	-1.93 ± 2	-1.9 ± 0.78
CG A40T T41A	-0.491 ± 0.97	-0.0047 ± 0.075
CG A33C	0.29 ± 0.052	0.172 ± 0.082
CG A33G	0.00747 ± 0.0001	0.292 ± 0.074
CG A33T	0.232 ± 0.46	0.135 ± 0.21
CG A33T A34T T35A A36T	0.405 ± 0.42	0.295 ± 0.092
CG A36G A65G A66C	-0.205 ± 0.26	-0.491 ± 0.18
CG A46T A47T	0.446 ± 0.37	0.452 ± 0.058
CG A47T T48A	0.0225 ± 0.3	0.341 ± 0.033
CG A34C T35G	0.139 ± 0.22	-0.109 ± 0.025
CG A37C T38G	-0.172 ± 0.0031	-0.236 ± 0.044
CG A29C T30G T31G T32G	-0.555 ± 0.56	-0.723 ± 0.61
CG A27T T28A A29T T30A	-0.918 ± 0.29	-0.753 ± 0.39
CG A33C A34C T35G A36C	-0.094 ± 0.018	-0.077 ± 0.049
CG A50C G51T	-0.407 ± 0.67	-0.196 ± 0.22

Variant	relative integration efficiency (log2) [1]	relative integration efficiency (log2) [2]
CG A40T T41A T42A T43A	0.256 ± 0.21	0.0403 ± 0.12
CG A33T C87G T113A	0.02216 ± 0.00015	-0.157 ± 0.2
CG A29C T30G	-1.28 ± 1.4	-1.12 ± 0.53
CG A46C A47C T48G C49A	-2.09 ± 0.25	-1.44 ± 0.53
CG A34C T35G T39C T41A T45A G51T C52A A53G A54G C60T A62G C63A	0.531 ± 0.51	-0.0678 ± 0.088
CG A44G	0.0745 ± 0.29	0.155 ± 0.065
CG A44T	0.138 ± 0.09	0.0943 ± 0.032
CG A44C	-0.0239 ± 0.24	0.147 ± 0.068
CG A23T G24C	0.111 ± 0.07	-0.0468 ± 0.13
TG A23G G24T A33T A70C T76A T84A C87A	0.473 ± 0.22	0.022 ± 0.35
CG A33C C87A T113G	0.0172 ± 0.12	-0.0603 ± 0.021
CG A40C T41G	0.224 ± 0.022	-0.0298 ± 0.00035
CG A46C	-0.118 ± 0.76	-0.291 ± 0.11
CG A46G	-0.0959 ± 0.59	-0.0807 ± 0.18
CG A46T	-0.195 ± 0.93	-0.0773 ± 0.14
CG A29T A83T A109T	-0.979 ± 0.74	-0.428 ± 0.23
CG A34C A36G T38C T42C A62G A65G A66C	-0.874 ± 0.72	-0.721 ± 0.33
CG A50T G51C	-1.59 ± 0.97	-0.729 ± 0.46
CG A44C T45G A46C A47C	0.0873 ± 0.37	-0.21 ± 0.22
CG A50C G51T C52A A53C	-0.0404 ± 0.5	-0.0487 ± 0.27
